Results from patent US7419670B2, “Method of treating arthritis with SERP-1 and an immunosuppressant” (Viron Therapeutics, Inc., priority 2000, dated 2008).

What was measured:
[1] = tested on: Collagen-induced Arthritis (CIA) in Rats; experiment: CIA in rats: blinded radiographic scoring of the ankle joint at study termination; format: in vivo, rats (Louvain); conditions: mean ± SD; control group 4.27±1.68; p=0.02
Description: Twenty four rats (Louvain) weighing 125-150 g were housed at the UCLA vivarium facility and were fed standard laboratory chow and water.
Type II collagen, (CII) was prepared by pepsin treatment of chick sternal cartilage or was purchased from Genzyme (Boston, Mass.). Rats were anesthetized with ether and were immunized intradermally at several sites on the back, with 0.5 mg native CII solubilized in 0.1M acetic acid and emulsified in FIA (Difco, Detroit, Mich.). The signs and symptoms of rheumatoid arthritis developed over a period of ten days after immunization with collagen. (Oliver and Brahn, (1996) J. Rheumatol. 23, S44-56-60, incorporated herein by reference).
Cyclosporin at (4 mg/kg/d; sc) was administered by osmotic pump for the duration of the study. […]
The incidence and severity of chronic arthritis in SERP-1/CsA treated and untreated rats was evaluated via a number of study endpoints. During the experimental phase of the study, the individual hind limbs of each rat was evaluated daily and arthritis severity was quantified by assigning a score (0=normal, 4=maximum/hindpaw) based on increasing levels of swelling and periarticular erythema. The daily, arthritic severity scores for each rat were recorded from disease onset (day 10) until study termination (Table 1). […]

[2] = tested on: intimal fatty cellular proliferation associated with restenosis; conditions: rabbits following balloon angioplasty; cited from earlier work

B1: SERP-1: viral serine protease inhibitor produced by malignant rabbit fibroma virus and myxoma virus; sequence of SEQ ID NO: 1 (protein, listed as Myxoma virus)
chain: MKYLVLVLCLTSCACRDIGLWTFRYVYNESDNVVFSPYGLTSALSVLRIAAGGNTKREIDVPESVVEDSDAFLALRELFVDASVPLRPEFTAEFSSRFNTSVQRVTFNSENVKDVINSYVKDKTGGDVPRVLDASLDRDTKMLLLSSVRMKTSWRHVFDPSFTTDQPFYSGNVTYKVRMMNKIDTLKTETFTLRNVGYSVTELPYKRRQTAMLLVVPDDLGEIVRALDLSLVRFWIRNMRKDVCQVVMPKFSVESVLDLRDALQRLGVRDAFDPSRADFGQASPSNDLYVTKVLQTSKIEADERGTTASSDTAITLIPRNALTAIVANKPFMFLIYHKPTTTVLFMGTITKGEKVIYDTEGRDDVVSSV
[1]
  joint erosions (radiographic score): 2.58±1.88
[2]
  intimal fatty cellular proliferation associated with restenosis: decrease
